Data reported in patent US20150203577A1 (Chugai, published 2015).
Positions count from the first letter of the chain named.

T1: mouse FcγRII extracellular domain, C-terminally His-tagged (mouse, UniProt P08101 30-210)
T1 construct: the whole entry is named; also called mFcγRII; mFcgRII
T1 sequence: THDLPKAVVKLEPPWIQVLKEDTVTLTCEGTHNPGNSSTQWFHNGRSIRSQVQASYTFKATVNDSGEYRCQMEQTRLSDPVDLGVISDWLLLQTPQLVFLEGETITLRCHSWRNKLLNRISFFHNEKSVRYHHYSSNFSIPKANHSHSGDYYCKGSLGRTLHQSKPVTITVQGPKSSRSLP

T2: mouse FcγRIII extracellular domain, C-terminally His-tagged (mouse, UniProt P08508 31-215)
T2 construct: the whole entry is named; also called mFcγRIII; mFcgRIII
T2 chain: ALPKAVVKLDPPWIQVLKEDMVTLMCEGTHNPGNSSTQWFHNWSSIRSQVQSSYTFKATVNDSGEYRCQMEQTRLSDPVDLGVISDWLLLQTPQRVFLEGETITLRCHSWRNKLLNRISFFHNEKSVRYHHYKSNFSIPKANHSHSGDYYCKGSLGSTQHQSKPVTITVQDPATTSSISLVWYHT

B1: H237-MB461/MRAL-k0 (antibody, mouse IgG1, kappa)
heavy: QVQLQESGPGLVKPSETLSLTCAVSGHSISHDHAWSWVRQPPGEGLEWIGFISYSGITNYNPSLQGRVTISRDNSKNTLYLQMNSLRAEDTAVYYCARSLARTTAMDYWGEGTLVTVSSAKTTPPSVYPLAPGSAAQTNSMVTLGCLVKGYFPEPVTVTWNSGSLSSGVHTFPAVLQSDLYTLSSSVTVPSSTWPSETVTCNVAHPASSTKVDKKIVPRDCGCKPCICETYEVEDVFIFPPKPKDVLTITLTPKVTCVVVDISKDDPEVQFSWFVDDVEVHTAQTQPREEQFNSTFRSVSELPIMHQDWLNGKEFKCRVNSAAFPAPIEKTIIKTKGRPKAPQVYTIPPPKEQMAKDKVSLTCMITDFFPEDITVEWQWNGQPAENYKNTQPIMDTDGSYFVYSKLNVQKSNWEAGNTFTCSVLHEGLHNHHTEKSLSHSPGK
light: not shown
notes: copies: 2 + 2
B2: H237-MB479/MRAL-k0 (antibody, mouse IgG1, kappa)
heavy: B1 heavy with T230P, Y231N, A322D, I333S
light: not shown
notes: copies: 2 + 2
B3: H237-MB462/MRAL-k0 (antibody, mouse IgG1, kappa)
heavy: B1 heavy with I333K
light: not shown
notes: copies: 2 + 2
B4: H237-MB493/MRAL-k0 (antibody, mouse IgG1, kappa)
heavy: B1 heavy with T230P, Y231N, S294L, N320D, I333S
light: not shown
notes: copies: 2 + 2
B5: H237-MB480/MRAL-k0 (antibody, mouse IgG1, kappa)
heavy: B1 heavy with T230P, Y231N, K330R, I333S
light: not shown
notes: copies: 2 + 2
B6: H237-MB463/MRAL-k0 (antibody, mouse IgG1, kappa)
heavy: B1 heavy with I333W
light: not shown
notes: copies: 2 + 2
B7: H237-MB496/MRAL-k0 (antibody, mouse IgG1, kappa)
heavy: B1 heavy with T230P, Y231N, S294M, K330R, I333S
light: not shown
notes: copies: 2 + 2
B8: H237-MB464/MRAL-k0 (antibody, mouse IgG1, kappa)
heavy: B1 heavy with S263A, I333S
light: not shown
notes: copies: 2 + 2
B9: H237-MB492/MRAL-k0 (antibody, mouse IgG1, kappa)
heavy: B1 heavy with T230P, Y231N, N320D, I333S
light: not shown
notes: copies: 2 + 2
B10: H237-MB467/MRAL-k0 (antibody, mouse IgG1, kappa)
heavy: B1 heavy with A323G, I333S
light: not shown
notes: copies: 2 + 2
B11: H237-MB466/MRAL-k0 (antibody, mouse IgG1, kappa)
heavy: B1 heavy with A322D, I333S
light: not shown
notes: copies: 2 + 2
B12: H237-MB495/MRAL-k0 (antibody, mouse IgG1, kappa)
heavy: B1 heavy with T230P, Y231N, S294M, N320D, I333S
light: not shown
notes: copies: 2 + 2
B13: H237-MB494/MRAL-k0 (antibody, mouse IgG1, kappa)
heavy: B1 heavy with T230P, Y231N, S294L, K330R, I333S
light: not shown
notes: copies: 2 + 2
B14: H237-MB490/MRAL-k0 (antibody, mouse IgG1, kappa)
heavy: B1 heavy with T230P, Y231N, S294L, I333S
light: not shown
notes: copies: 2 + 2
B15: H237-MB491/MRAL-k0 (antibody, mouse IgG1, kappa)
heavy: B1 heavy with T230P, Y231N, S294M, I333S
light: not shown
notes: copies: 2 + 2
B16: H237-MB465/MRAL-k0 (antibody, mouse IgG1, kappa)
heavy: B1 heavy with Q291L, I333S
light: not shown
notes: copies: 2 + 2
B17: H237-MB477/MRAL-k0 (antibody, mouse IgG1, kappa)
heavy: B1 heavy with T230P, Y231N, S263A, I333S
light: not shown
notes: copies: 2 + 2
B18: H237-MB498/MRAL-k0 (antibody, mouse IgG1, kappa)
heavy: B1 heavy with T230P, Y231N, S294L, N320D, K330R, I333S
light: not shown
notes: copies: 2 + 2
B19: H237-MB497/MRAL-k0 (antibody, mouse IgG1, kappa)
heavy: B1 heavy with T230P, Y231N, N320D, K330R, I333S
light: not shown
notes: copies: 2 + 2
B20: H237-MB478/MRAL-k0 (antibody, mouse IgG1, kappa)
heavy: B1 heavy with T230P, Y231N, Q291L, I333S
light: not shown
notes: copies: 2 + 2
B21: H237-MB499/MRAL-k0 (antibody, mouse IgG1, kappa)
heavy: B1 heavy with T230P, Y231N, S294M, N320D, K330R, I333S
light: not shown
notes: copies: 2 + 2

Key:
[1] = biological target: T1, mouse FcγRII extracellular domain, …; test: SPR Biacore T200, KD ratio
[2] = biological target: T2, mouse FcγRIII extracellular domain, …; test: SPR Biacore T200, KD ratio

relative mFcγRII-binding activity (MB397 = 1) [1]	relative mFcγRII-binding activity (mIgG1 = 1) [1]	relative mFcγRIII-binding activity (MB397 = 1) [2]	relative mFcγRIII-binding activity (mIgG1 = 1) [2]	relative mFcγRII-binding activity (MB390 = 1) [1]	relative mFcγRIII-binding activity (MB390 = 1) [2]	Binder
0.45 fold	247 fold	0.97 fold	18.8 fold	–	–	B1
–	734 fold	–	13.8 fold	1.41 fold	1.16 fold	B2
0.39 fold	214 fold	0.78 fold	15.1 fold	–	–	B3
–	1420 fold	–	44.9 fold	2.73 fold	3.77 fold	B4
–	511 fold	–	10.2 fold	0.98 fold	0.85 fold	B5
0.55 fold	307 fold	1.12 fold	21.6 fold	–	–	B6
–	884 fold	–	20.3 fold	1.7 fold	1.71 fold	B7
0.16 fold	88.5 fold	0.39 fold	7.6 fold	–	–	B8
–	622 fold	–	10.9 fold	1.19 fold	0.92 fold	B9
0.49 fold	271 fold	0.99 fold	19.2 fold	–	–	B10
0.81 fold	449 fold	1.66 fold	32 fold	–	–	B11
–	623 fold	–	17.2 fold	1.2 fold	1.45 fold	B12
–	2110 fold	–	59.4 fold	4.05 fold	4.99 fold	B13
–	1130 fold	–	34.6 fold	2.16 fold	2.9 fold	B14
–	478 fold	–	12.4 fold	0.92 fold	1.05 fold	B15
0.35 fold	192 fold	0.77 fold	15 fold	–	–	B16
–	196 fold	–	3 fold	0.38 fold	0.25 fold	B17
–	3340 fold	–	85.1 fold	6.4 fold	7.15 fold	B18
–	773 fold	–	15.7 fold	1.48 fold	1.32 fold	B19
–	254 fold	–	4.7 fold	0.49 fold	0.39 fold	B20
–	992 fold	–	24.2 fold	1.9 fold	2.03 fold	B21
